To fix the notation:
B1: U4/U6 small nuclear ribonucleoprotein Prp31 (Homo sapiens), Q8WWY3 (parent)
chain: MSLADELLADLEEAAEEEEGGSYGEEEEEPAIEDVQEETQLDLSGDSVKTIAKLWDSKMFAEIMMKIEEYISKQAKASEVMGPVEAAPEYRVIVDANNLTVEIENELNIIHKFIRDKYSKRFPELESLVPNALDYIRTVKELGNSLDKCKNNENLQQILTNATIMVVSVTASTTQGQQLSEEELERLEEACDMALELNASKHRIYEYVESRMSFIAPNLSIIIGASTAAKIMGVAGGLTNLSKMPACNIMLLGAQRKTLSGFSSTSVLPHTGYIYHSDIVQSLPPDLRRKAARLVAAKCTLAARVDSFHESTEGKVGYELKDEIERKFDKWQEPPPVKQVKPLPAPLDGQRKKRGGRRYRKMKERLGLTEIRKQANRMSFGEIEEDAYQEDLGFSLGHLGKSGSGRVRQTQVNEATKARISKTLQRTLQKQSVVYGGKSTIRDRSSGTASSVAFTPLQGLEIVNPQAAEKKVAEANQKYFSSMAEFLKVKGEKSGLMST
partner: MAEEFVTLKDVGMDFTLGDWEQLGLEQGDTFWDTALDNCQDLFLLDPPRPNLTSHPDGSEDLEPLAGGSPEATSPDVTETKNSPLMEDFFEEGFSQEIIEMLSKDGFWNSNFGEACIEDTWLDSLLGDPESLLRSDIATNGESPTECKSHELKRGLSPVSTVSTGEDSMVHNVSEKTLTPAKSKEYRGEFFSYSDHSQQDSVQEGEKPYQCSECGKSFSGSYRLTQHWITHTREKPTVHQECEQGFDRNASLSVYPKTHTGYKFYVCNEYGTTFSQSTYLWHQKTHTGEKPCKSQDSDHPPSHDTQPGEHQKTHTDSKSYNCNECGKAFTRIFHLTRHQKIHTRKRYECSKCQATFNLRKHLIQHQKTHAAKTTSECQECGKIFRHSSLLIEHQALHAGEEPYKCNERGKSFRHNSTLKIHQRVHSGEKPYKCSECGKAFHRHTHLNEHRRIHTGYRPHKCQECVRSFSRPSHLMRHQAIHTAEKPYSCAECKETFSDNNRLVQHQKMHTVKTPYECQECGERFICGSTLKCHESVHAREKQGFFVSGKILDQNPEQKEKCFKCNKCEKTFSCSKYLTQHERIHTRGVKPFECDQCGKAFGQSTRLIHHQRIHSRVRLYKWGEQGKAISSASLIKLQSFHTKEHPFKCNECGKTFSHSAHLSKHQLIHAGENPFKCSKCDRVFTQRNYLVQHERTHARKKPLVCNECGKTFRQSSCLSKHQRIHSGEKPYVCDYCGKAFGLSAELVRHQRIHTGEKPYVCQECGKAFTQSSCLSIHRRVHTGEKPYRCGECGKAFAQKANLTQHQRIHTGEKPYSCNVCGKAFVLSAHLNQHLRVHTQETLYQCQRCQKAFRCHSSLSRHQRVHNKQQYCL
B2: Glutathione S-transferase A2 (Homo sapiens), P09210 (parent)
chain: MAEKPKLHYSNIRGRMESIRWLLAAAGVEFEEKFIKSAEDLDKLRNDGYLMFQQVPMVEIDGMKLVQTRAILNYIASKYNLYGKDIKEKALIDMYIEGIADLGEMILLLPFSQPEEQDAKLALIQEKTKNRYFPAFEKVLKSHGQDYLVGNKLSRADIHLVELLYYVEELDSSLISSFPLLKALKTRISNLPTVKKFLQPGSPRKPPMDEKSLEESRKIFRF
partner: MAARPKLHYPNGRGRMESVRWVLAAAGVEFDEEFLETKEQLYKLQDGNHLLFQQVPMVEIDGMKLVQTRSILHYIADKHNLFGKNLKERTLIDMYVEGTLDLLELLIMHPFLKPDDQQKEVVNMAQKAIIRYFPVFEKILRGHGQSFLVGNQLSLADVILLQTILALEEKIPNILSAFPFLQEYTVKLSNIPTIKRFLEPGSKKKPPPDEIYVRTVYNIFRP
B3: U4/U6 small nuclear ribonucleoprotein Prp3 (Homo sapiens), O43395 (parent)
chain: MALSKRELDELKPWIEKTVKRVLGFSEPTVVTAALNCVGKGMDKKKAADHLKPFLDDSTLRFVDKLFEAVEEGRSSRHSKSSSDRSRKRELKEVFGDDSEISKESSGVKKRRIPRFEEVEEEPEVIPGPPSESPGMLTKLQIKQMMEAATRQIEERKKQLSFISPPTPQPKTPSSSQPERLPIGNTIQPSQAATFMNDAIEKARKAAELQARIQAQLALKPGLIGNANMVGLANLHAMGIAPPKVELKDQTKPTPLILDEQGRTVDATGKEIELTHRMPTLKANIRAVKREQFKQQLKEKPSEDMESNTFFDPRVSIAPSQRQRRTFKFHDKGKFEKIAQRLRTKAQLEKLQAEISQAARKTGIHTSTRLALIAPKKELKEGDIPEIEWWDSYIIPNGFDLTEENPKREDYFGITNLVEHPAQLNPPVDNDTPVTLGVYLTKKEQKKLRRQTRREAQKELQEKVRLGLMPPPEPKVRISNLMRVLGTEAVQDPTKVEAHVRAQMAKRQKAHEEANAARKLTAEQRKVKKIKKLKEDISQGVHISVYRVRNLSNPAKKFKIEANAGQLYLTGVVVLHKDVNVVVVEGGPKAQKKFKRLMLHRIKWDEQTSNTKGDDDEESDEEAVKKTNKCVLVWEGTAKDRSFGEMKFKQCPTENMAREHFKKHGAEHYWDLALSESVLESTD
partner: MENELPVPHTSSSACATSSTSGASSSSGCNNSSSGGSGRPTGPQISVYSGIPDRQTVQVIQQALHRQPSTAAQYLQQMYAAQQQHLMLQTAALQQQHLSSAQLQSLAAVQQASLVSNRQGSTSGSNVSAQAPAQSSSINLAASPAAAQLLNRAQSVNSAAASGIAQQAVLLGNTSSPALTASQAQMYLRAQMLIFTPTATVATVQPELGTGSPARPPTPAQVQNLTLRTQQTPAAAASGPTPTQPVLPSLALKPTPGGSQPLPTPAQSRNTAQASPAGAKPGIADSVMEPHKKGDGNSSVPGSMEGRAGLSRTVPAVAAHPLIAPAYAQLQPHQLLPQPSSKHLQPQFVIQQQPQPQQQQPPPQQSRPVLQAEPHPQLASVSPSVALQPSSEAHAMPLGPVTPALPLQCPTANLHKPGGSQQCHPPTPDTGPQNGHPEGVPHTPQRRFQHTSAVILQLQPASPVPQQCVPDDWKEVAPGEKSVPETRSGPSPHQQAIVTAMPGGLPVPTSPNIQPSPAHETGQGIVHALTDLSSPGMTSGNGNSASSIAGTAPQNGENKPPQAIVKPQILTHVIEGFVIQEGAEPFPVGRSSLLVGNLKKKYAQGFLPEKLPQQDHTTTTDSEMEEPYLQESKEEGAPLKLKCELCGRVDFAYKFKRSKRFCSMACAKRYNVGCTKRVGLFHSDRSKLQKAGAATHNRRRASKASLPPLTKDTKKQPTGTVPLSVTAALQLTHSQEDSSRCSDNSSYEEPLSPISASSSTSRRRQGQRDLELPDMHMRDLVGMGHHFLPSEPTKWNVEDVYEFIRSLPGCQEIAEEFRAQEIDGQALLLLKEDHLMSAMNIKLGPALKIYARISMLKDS
B4: Phakinin (Homo sapiens), Q13515 (parent)
chain: MSERRVVVDLPTSASSSMPLQRRRASFRGPRSSSSLESPPASRTNAMSGLVRAPGVYVGTAPSGCIGGLGARVTRRALGISSVFLQGLRSSGLATVPAPGLERDHGAVEDLGGCLVEYMAKVHALEQVSQELETQLRMHLESKATRSGNWGALRASWASSCQQVGEAVLENARLMLQTETIQAGADDFKERYENEQPFRKAAEEEINSLYKVIDEANLTKMDLESQIESLKEELGSLSRNYEEDVKLLHKQLAGCELEQMDAPIGTGLDDILETIRIQWERDVEKNRVEAGALLQAKQQAEVAHMSQTQEEKLAAALRVELHNTSCQVQSLQAETESLRALKRGLENTLHDAKHWHDMELQNLGAVVGRLEAELREIRAEAEQQQQERAHLLARKCQLQKDVASYHALLDREESG
partner: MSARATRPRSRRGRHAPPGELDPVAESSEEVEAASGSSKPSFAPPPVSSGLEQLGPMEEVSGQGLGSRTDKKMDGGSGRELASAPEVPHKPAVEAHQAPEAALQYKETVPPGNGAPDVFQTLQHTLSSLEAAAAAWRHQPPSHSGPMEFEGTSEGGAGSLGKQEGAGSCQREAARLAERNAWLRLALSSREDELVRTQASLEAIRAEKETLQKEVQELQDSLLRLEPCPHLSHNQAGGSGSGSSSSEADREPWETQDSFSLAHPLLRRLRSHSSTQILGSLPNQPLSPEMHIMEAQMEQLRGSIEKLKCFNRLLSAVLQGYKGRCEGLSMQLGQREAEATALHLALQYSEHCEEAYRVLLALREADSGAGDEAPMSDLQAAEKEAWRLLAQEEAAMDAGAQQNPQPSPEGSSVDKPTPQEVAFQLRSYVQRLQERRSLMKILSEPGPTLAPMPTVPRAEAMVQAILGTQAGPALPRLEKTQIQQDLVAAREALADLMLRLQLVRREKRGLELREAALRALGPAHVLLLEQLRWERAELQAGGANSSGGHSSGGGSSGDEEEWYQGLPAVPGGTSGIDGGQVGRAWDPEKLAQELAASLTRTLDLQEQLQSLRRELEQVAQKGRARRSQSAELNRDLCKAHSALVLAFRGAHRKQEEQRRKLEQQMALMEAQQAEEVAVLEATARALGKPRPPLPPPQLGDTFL
B5: Plasma membrane ascorbate-dependent reductase CYBRD1 (Homo sapiens), Q53TN4 (parent)
chain: MAMEGYWRFLALLGSALLVGFLSVIFALVWVLHYREGLGWDGSALEFNWHPVLMVTGFVFIQGIAIIVYRLPWTWKCSKLLMKSIHAGLNAVAAILAIISVVAVFENHNVNNIANMYSLHSWVGLIAVICYLLQLLSGFSVFLLPWAPLSLRAFLMPIHVYSGIVIFGTVIATALMGLTEKLIFSLRDPAYSTFPPEGVFVNTLGLLILVFGALIFWIVTRPQWKRPKEPNSTILHPNGGTEQGARGSMPAYSGNNMDKSDSELNSEVAARKRNLALDEAGQRSTM
B6: U4/U6 small nuclear ribonucleoprotein Prp3 (Homo sapiens), O43395 (parent)
chain: B3 chain
partner: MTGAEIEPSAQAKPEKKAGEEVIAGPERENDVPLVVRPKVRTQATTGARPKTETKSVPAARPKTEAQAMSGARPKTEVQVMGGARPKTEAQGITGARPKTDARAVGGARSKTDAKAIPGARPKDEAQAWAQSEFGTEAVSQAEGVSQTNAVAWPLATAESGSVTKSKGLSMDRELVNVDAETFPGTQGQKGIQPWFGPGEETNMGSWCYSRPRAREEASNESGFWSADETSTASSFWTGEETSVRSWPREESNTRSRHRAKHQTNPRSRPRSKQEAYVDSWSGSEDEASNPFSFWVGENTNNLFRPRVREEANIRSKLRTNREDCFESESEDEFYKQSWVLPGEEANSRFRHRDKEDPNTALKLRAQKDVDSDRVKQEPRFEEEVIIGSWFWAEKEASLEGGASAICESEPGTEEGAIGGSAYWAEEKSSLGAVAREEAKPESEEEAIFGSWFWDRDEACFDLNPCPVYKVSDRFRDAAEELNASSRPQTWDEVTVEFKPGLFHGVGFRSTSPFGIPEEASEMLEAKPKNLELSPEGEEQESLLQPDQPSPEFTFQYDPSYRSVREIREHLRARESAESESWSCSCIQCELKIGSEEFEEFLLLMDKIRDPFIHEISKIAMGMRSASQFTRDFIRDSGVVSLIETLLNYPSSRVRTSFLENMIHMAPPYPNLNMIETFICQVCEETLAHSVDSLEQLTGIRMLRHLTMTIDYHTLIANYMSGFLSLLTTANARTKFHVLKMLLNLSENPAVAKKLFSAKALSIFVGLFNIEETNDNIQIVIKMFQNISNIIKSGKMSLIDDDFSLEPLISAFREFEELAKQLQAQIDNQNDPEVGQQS

In one test the parent is B1. The conditions noted are these: with zn473_human ZNF473, Q8WTR7.
With L107V, the “effect of a mutation on the interaction” value is “with no effect”.

The variants in another test derive from B2. The conditions noted are these: with gsta4_human GSTA4, O15217.
Regarding P110S, the “effect of a mutation on the interaction” value was “with no effect”.

In the next test the parent is B3. Conditions: with PHC2, Q8IXK0-5.
T494M: the “effect of a mutation on the interaction” value was “disrupting interaction strength”. On the same count and under the same terms, to P493S belongs “disrupting interaction strength”; to A489D, “disrupting interaction strength”.

The next test covers variants of B4. The conditions noted are these: with usbp1_human USHBP1, Q8N6Y0.
With A407D, the “effect of a mutation on the interaction” value is “with no effect”. On the same count and under the same terms, to R339H belongs “with no effect”.

In a further test the parent is B5. The conditions noted are these: with stx4_human STX4, Q12846.
Chain of stx4_human STX4, Q12846 (Q12846 whole entry): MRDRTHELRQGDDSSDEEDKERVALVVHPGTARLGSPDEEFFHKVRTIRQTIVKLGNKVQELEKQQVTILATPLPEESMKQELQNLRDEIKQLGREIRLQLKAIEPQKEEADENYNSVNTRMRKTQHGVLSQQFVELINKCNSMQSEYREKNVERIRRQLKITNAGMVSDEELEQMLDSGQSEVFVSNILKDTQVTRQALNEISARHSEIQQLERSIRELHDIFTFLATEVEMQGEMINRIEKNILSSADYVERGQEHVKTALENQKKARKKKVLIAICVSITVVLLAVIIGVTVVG
As to R226H, the “effect of a mutation on the interaction” value is reported as “with no effect”.

The next test covers variants of B6. The conditions noted are these: with gasp2_human GPRASP2, Q96D09.
Turning to P493S, the “effect of a mutation on the interaction” value was “with no effect”. Same read-out and setting: to A489D belongs “with no effect”.

These data come from IntAct's records for PubMed 25910212.
